In patent publication US20210102174A1 (TAIPEI VETERANS GENERAL HOSPITAL, published 2021):

B1: Nanog (endogenous, mouse embryonic stem cells) (other, UniProt Q80Z64 1-305, looked up)
chain: MSVGLPGPHSLPSSEEASNSGNASSMPAVFHPENYSCLQGSATEMLCTEAASPRPSSEDLPLQGSPDSSTSPKQKLSSPEADKGPEEEENKVLARKQKMRTVFSQAQLCALKDRFQKQKYLSLQQMQELSSILNLSYKQVKTWFQNQRMKCKRWQKNQWLKTSNGLIQKGSAPVEYPSIHCSYPQGYLVNASGSLSMWGSQTWTNPTWSSQTWTNPTWNNQTWTNPTWSSQAWTAQSWNGQPWNAAPLHNFGEDFLQPYVQLQQNFSASDLEVNLEATRESHAHFSTPQALELFLNYSVTPPGEI
B2: Flag-tagged Ash2l-N terminus (1-172, the PHD domain) (other, UniProt Q91X20 1-172, looked up)
chain: MAAAGAGPGPGVSAGPGPGAAASATTAEDRETEPVAAGAGEGPSAAPGAEPSSGEAESGDANLVDVSGLETESSNGKDTLEGTGDTSEVMDTQAGSVDEENGRQLGEVELQCGICTKWFTADTFGIDTSSCLPFMTNYSFHCNVCHHSGNTYFLRKQANLKEMCLSALANLT
notes: range 1-172; also called Flag-Ash2l-N; not shown: 3xFlag tag of the p3xFlag plasmid

Key:
[1] = biological target: T1, Flag-tagged full-length Ash2l (Ash2l-Full length: 1-623) (UniProt Q91X20 1-623); experiment: co-IP of Flag-tagged Ash2l constructs from nuclear extracts, Western blot
T1 construct: range 1-623; Expressed in cells for co-IP, ChIP and reporter assays, or purified from E. coli BL21 for in vitro pull-downs; also called Flag-Ash2l^WT; Flag-Ash2l-F; not shown: 3xFlag tag of the p3xFlag plasmid
Description: (§1) For samples from gel filtration, we used Centricon (Millipore) to concentrate and desalt the fraction of elute. Cleared sample solution was obtained by centrifugation at 12 000 rpm for 30 min at 4° C., and 0.5-1.5 mg of the sample was used for immunoprecipitations. For identify interacting complex of Ash2l protein, sample was added into primary antibody for 2 h at […] followed by 2 h of further incubation with protein A/G-Sepharose beads. After washing three times with the lysis buffer, immunoprecipitated proteins were eluted from the beads by boiling for 5 min in SDS-PAGE sample buffer and analyzed by immunoblotting.
(§2) To identify the domain(s) of Ash2l responsible for this protein interaction, we constructed expression plasmids for Flag-tagged truncated Ash2l (Ash2l-N-terminus: 1-172, the PHD domain; and Ash2l-C-terminus: 387-623, the SPRY domain) and full-length Ash2l (Ash2l-full length: 1-623; FIG. 2D) for various experiments. First, we overexpressed truncated and full-length Ash2l proteins in HEK293T cells, and subjected the nuclear extracts to immunoprecipitation (FIG. 2E). Rbbp5 associated with full-length Ash2l and Ash2l-C, which is consistent with previous findings (26). Remarkably, Oct4, Sox2, and Nanog associated with full-length Ash2l and Ash2l-N terminus, but not Ash2l-C terminus (FIG. 2E). To further assess the direct protein-protein interaction, Ash2l-N, Ash2l-C, and full-length Ash2l recombinant proteins were purified from bacteria (FIG. 2G) and independently incubated with various recombinant proteins, including Oct4, Sox2 and Nanog, and the p300 (Taz domain) protein. As shown in the in vitro pull-down assays with further analysis using Western blot or Coomassie staining (FIG. 2F and 2G), Ash2l directly interacted with the master stemness factors, Oct4, Sox2, and Nanog through its N terminus (1-172) (FIG. 2F and 2G). We then used the ZDOCK software to simulate the molecular docking between Ash2l and Oct4 and further predicted that several residues at the N terminus of Ash2l, including K117, W118, E180, K190, N217, and K220, may be crucial for the recognition and interaction with Oct4 (FIG. 2H). To determine which residue(s) of Ash2l was important for its interaction with Oct4, we used immunoprecipitation to assess the binding abilities of different Flag-tagged Ash2l mutants (K117A, W118A, E180A, K190A, N217A, and K220A) to Myc-tagged Oct4.

[2] = biological target: T2, Ash2l (endogenous, in nuclear extracts of mouse embryonic stem cells) (mouse, UniProt Q91X20 1-623, limits assumed); experiment: co-IP from gel filtration fraction 1 of ESC nuclear extract; also fraction 3 after Wdr5 knockdown (Ash2l still interacted with OSN)
T2 construct: Endogenous protein in gel filtration fractions of ESC nuclear extracts or on ESC chromatin
Description: as §1
Nuclear extraction was performed according to the manual instruction. Biochemical fractionation of ESC extracts into seven fractions was performed as described previously (Ang et al., 2011). Briefly, ESCs were lysed with lysis buffer and applied onto […] column (HiPrep 16/60 Sephycryl). […]
To further understand the role of Ash2l in stemness regulation, we used gel filtration analysis (FIG. 2A) followed by Western blot to investigate the profiles of molecular complexes in the nuclei of ESCs (FIG. 2B). […] Subsequently, we assessed these OSN-enriched (fraction 1), OSN/WRD-enriched (fraction 3), and WRD-enriched fractions (fraction 4) in an immunoprecipitation assay. […]

[3] = biological target: B1; experiment: co-IP of Flag-tagged Ash2l constructs from nuclear extracts, Western blot
Description: as §1, §2

[4] = biological target: Oct4 (endogenous, mouse embryonic stem cells) (mouse, UniProt P20263 1-352); experiment: as above
Description: as §1, §2

[5] = biological target: Sox2 (endogenous, mouse embryonic stem cells) (mouse, UniProt P48432 1-319); experiment: as above
Description: as §1, §2

Chain of Oct4 (endogenous, mouse embryonic stem cells) (P20263 whole entry): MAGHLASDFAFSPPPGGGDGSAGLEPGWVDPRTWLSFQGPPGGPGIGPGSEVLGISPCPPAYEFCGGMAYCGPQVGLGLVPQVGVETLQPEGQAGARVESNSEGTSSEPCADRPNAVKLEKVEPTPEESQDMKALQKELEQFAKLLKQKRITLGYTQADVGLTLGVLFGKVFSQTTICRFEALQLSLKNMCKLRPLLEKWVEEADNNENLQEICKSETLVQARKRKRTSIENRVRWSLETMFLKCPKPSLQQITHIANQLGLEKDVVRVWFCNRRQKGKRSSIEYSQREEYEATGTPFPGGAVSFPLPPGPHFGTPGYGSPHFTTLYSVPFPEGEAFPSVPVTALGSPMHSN
Chain of Sox2 (endogenous, mouse embryonic stem cells) (P48432 whole entry): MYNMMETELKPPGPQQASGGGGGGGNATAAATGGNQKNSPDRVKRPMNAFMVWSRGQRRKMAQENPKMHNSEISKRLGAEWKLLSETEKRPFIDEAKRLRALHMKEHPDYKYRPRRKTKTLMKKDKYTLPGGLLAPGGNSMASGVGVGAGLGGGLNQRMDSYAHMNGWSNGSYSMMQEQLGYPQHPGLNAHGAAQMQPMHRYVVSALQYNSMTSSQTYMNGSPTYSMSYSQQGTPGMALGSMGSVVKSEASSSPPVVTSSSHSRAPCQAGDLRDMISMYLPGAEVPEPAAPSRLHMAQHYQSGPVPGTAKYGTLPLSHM

Row | Binder | binding result [1] | binding result [2] | binding result [3] | binding result [4] | binding result [5]
1 | B1 | binds | binds | – | – | –
2 | B2 | – | – | binds | binds | binds
